Assay results as given in the DeepSol protein solubility set.

Assay: soluble on expression in E. coli; label from the status in PepcDB or PDB records

| Sequence | soluble on expression in E. coli |
| --- | --- |
| MEILSDMWKEKITFIGINIDDEKSWKKFSQKNIKWITLNDPKEAFGLYIRYKANGIPFYVLVTPDGRISDIWYGYNKDSLSERLKQGVK | not soluble |
| MGSDKIHHHHHHMTKAVAETLESKAAKAAPMDRLWAENDDSRVTGDPSLVVDVAGFEGPLDLLLHLARTQKVDLARISILALVEQYLAFVETARALRLELAADYLVMAAWLAFLKSKLLIPKQPGEEGESGEELAAVLQFRLKRLEAMRDAAARLVNRNRLGRDVFARGMPEMVIIEKRNAYSASLYDLLTAYAQQRQKQAVTNVTIARRGVWSLKDARDILTRLIGSLRDWTALDSFLIRYMTSPEERRTAIASSFAATLELVRERKMDLRQDEVFAPIYLRDHRAPAIKAVEVAS | not soluble |
| MSEFEGWIKWLEPVFLLWKPEDPGYERPAYRDWTKEEDEPKYSPEKELALLDKQILASDGFDIDFTHFRCVFNYHLAYLDSHEFVDEPETTRDLLERLSRKALDDYNQESVVKANFHFCCAIMFLITFEVVDPYDNLIKLFQTRVRHAEDIVTEYVFCRPKPNQGVECIGVKNNDGKDVQTNVKEQEIPCMYGWFLRVITITFTLQIGVGASICHKE | soluble |
| GHGHMHGRLKVKTSEEQAEAKRLEREQKLKLYQSATQAVFQKRQAGELDESVLELTSQILGANPDFATLWNCRREVLQHLETEKSPEESAALVKAELGFLESCLRVNPKSYGTWHHRCWLLSRLPEPNWARELELCARFLEADERNFHCWDYRRFVAAQAAVAPAEELAFTDSLITRNFSNYSSWHYRSCLLPQLHPQPDSGPQGRLPENVLLKELELVQNAFFTDPNDQSAWFYHRWLLGAGSGRCELSVEKSTVLQSELESCKELQELEPENKWCLLTIILLMRALDPLLYEKETLQYFSTLKAVDPMRAAYLDDLRSKFLLENSVLKMEYA | soluble |
| MGSDKIHHHHHHMAQKNNNVIPMTFDDAFYRKMAKQKFKQREYKRAAEYFEKVLELSPDDLEIQIDYAQCLVQLGIAKKAEHLFYDNIIYNRHLEDSFYELSQLNIEVNEPNKAFLFGINYVIVSDDQDYRDELDQMFDVKYQSEEQIELEAQLFVVQILFQYLFSQGRLKDAKNYVLHQPQEVQDHRVVRNLLAMCYLYLGEYDTAKALYEALLQEDSTDIYALCHYTLLLYNTKENEQYQKYLKILNKVVPMNDDESFKLGIVLSYLKQYRASQQLLYPLYKKGKFLSIQMYNALAYNYYYLGEEDESHYYWDKLKQISKVEIGHAPWVIENSKEVFDQHILPLLQSDDSHYRLYGIFLLDQLNGKEIVMTESIWQVLENLNNYEKLYLTYLVQGLTLNKLDFIHRGLLTLYQNELFVSENDLMVAWINQGELIIAEKVDLTDVEPYIGAFIYLYFKNQPRNVTKKQITTWLGITQYKLNKMIEFLLSI | not soluble |
| MGSDKIHHHHHHMRLFKSLKNPKKTDAKLPKKSSGLNNRAAIGIDIDQHSIKMVQLSGRSLNQIQLEKYVIAKLPKNIIQGNKVQNYDQLVTYLQQAYAKLGTSCKNIVASVPQNLATIEQLTYTAKDAELDLQGFVESSISEASSISLEEANYDYQVLSQSAVGEAVLSVASRKDEIEPLIDAFNAAGMKLSALDVDIFGQYNAYALWINHFAPELADEKVAIFGVYAAQTYALVIQDGKILYKQETSVSEEQLNQLIQRTYQVTAEKAEEIINSPQKPSDYQESVANYFNQQITQEIQRVLQFYYTTQTADDMTDIKHILLTGEAVRQKGIAQTVASQTNADVQCVHPARYFANDLKTDEQQFELDAPTLTKAFGLAVRGL | not soluble |
| MGSDKIHHHHHHMENSQQHTDFRQRLELLIGSEKPYAWAARNGLNKGSFTNMWYKGGVPRIGTAQKIAANSGCRVEWLLYGEGPMQDECAQAHDAPMPAGLPALSPLADADEHEVPAGVQEEFCFIPRYNLKASAGFGTSAAGEQPMFYMAFRRYWVKNYLNASPRNLVVISVKGDSMSGVLEDRDTILVNTAERHPGEGLFVIRIGDDIFVKQLQRLPGGAVQVKSANPLYETFTVDLSRASGEFEVIGRVVWFGRQIA | not soluble |
| MAHHHHHHMGGCVVSLMECKARSNEVPWELSEDVKSYGPLSVAVAGTQTPNSSAVYVNGKQSTLAAQQECGKQFYYGPNQPQRFAKLCQENLDSVALAYRRIEKMEKEQVAGASRPMDVAYFSEQCNLTYRELWHAVTGFSRGLAELGLEKRVNVTIYEETRWEWLASIYGIWMQDMVAATVYANLGEGALFHALRETECKAILCNGKSVPNLLRGVGSGAFPACTLIYLDNLPVAGCAELHGCRVVSWKDVVALGHGAGAHHGAAPPEDNESVALIMYTSGTTGDPKGVMHTHGSIVAGILTMDDWLYSVIKHRPDDVYLSYLPMAHIMEFGVVNILLARRAHVAFGTPRTLTDATARPHGDFTHFRPTLLIGVPRIFDTLKKAVEAKLPPVGTLKRQVFDHAYQSRLAALKEGKDTPFWNEKVFSQPRAALGGRVRAFLSGGGPLSETTQEFVNVVFGCIVNGWGLTETVCIGAIQRLGDLTPSAVGQVLCSEQLKLRDIDEYKHTDTPYPRGEICLRGPFLFKGYYKQPELTREVLDEDGWFHTGDVGSIDCEGRVSIVGRIKALAKNCLGEYIALEVLEAVYSSHPLVLHNCVCVLVDPCKNYICALVLTDESHVMRFAKANGIEGEYPSLLEKKELLEKAAASMAETARAARRRDFEVVRRVSLIDDEWSPEKGQLTAALKLRRGAIAKQYEKQITCLFAE | not soluble |
| MRSLISSLDLTREEVEEILKYAKEFKEGKEETIKASAVLFFSEPSTRTRLSFEKAARELGIETYLVSGSESSTVKGESFFDTLKTFEGLGFDYVVFRVPFVFFPYKEIVKSLNLRLVNAGDGTHQHPSQGLIDFFTIKEHFGEVKDLRVLYVGDIKHSRVFRSGAPLLNMFGAKIGVCGPKTLIPRDVEVFKVDVFDDVDKGIDWADVVIWLRLQKERQKENYIPSESSYFKQFGLTKERFEKVKLYMHPGPVNRNVDIDHELVYTEKSLIQEQVKNGIPVRKAIYKFLWT | soluble |
| MSLKLPVPSPMRLAVTHEGRSIIYIPSPEYAVASGRLEPAWLEVFYNPAMEFNRDVSVVAASALRRTGLLTRSGVAFDAHAGVGVRGVRYAVEAGYVKVIMNDINPKASMLAALNARANGLEPGSYMIFNKESNSLMFHLSRERPTPVSLIDIDPYGSPAPFVDAALALSGKGTVVAMTATDLAVLEGGKARAAVRRYMLRSVSKTPVSKETGLRVLLGYVARVAAAHDKAVKPLLAYYADHYYRVYVAVERGARRSDSMLEENLGRLVYCPETGVALALSYAEDPASACGGSYVVAADPAWIGSLGDQAFLEAMLNIAVEAVWLGTRPRVEKLLNTLHGEAPLSPRSIYVSLTSVASKARVNTPKKSKVVELLRSMGYRAVATHFSGEGVRTDAPWGEVLEAVVKLGSSGEGHHHHHH | not soluble |
| MLSIKGKKWRNWTGNVEGTPHYTMYPESIQDVVEVVGLARKKGKKIRVVGSGHSFTPLVQTEEVLVSLDELKGIVNIDAEKMVAEVWAGTKLYDLGKLLEEKGYAQENLGDIDSQSIAGAISTGTHGTGITFGSLSTQVIEITAVLSNGESIVCSETENVEYWRAFQLSLGMLGIIVKIKLKVIPAYSLVYESEKQSLSTVMNKLEEYKKHRHFEFFVFPYSDEVQVKLTNETTNTGSDLKWHKLKVELLENRMFSLLSKGCKWFPSISKGVSRLSAKAVPNTKIIGPSYEVFATSRTVPFYEMEYSIPSKYMRTVVEEISNLIEKKKYKVHFPIECRYVKGDDIWLSPAYGRDSAYIAVHMYKGMKYAAYFGEVEKIFLKYEGRPHWGKMHTLSYEQLQDIYPEFHSFLQARKSLDELGMFFNPYAEKLFIPLFAGQLEHHHHHH | soluble |
